What was measured:
[1] = molecular target: T1, FLAP(S108Δ) (human) (UniProt P20292)
T1 sequence: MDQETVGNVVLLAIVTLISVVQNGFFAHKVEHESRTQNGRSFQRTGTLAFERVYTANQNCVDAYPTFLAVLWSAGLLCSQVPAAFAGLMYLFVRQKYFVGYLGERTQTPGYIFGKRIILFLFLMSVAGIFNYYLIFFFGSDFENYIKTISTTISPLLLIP

[2] = molecular target: T2, FLAP(S108D) (human, UniProt P20292 1-161, S108D); assay: cell-based or functional assay
T2 sequence (looked up): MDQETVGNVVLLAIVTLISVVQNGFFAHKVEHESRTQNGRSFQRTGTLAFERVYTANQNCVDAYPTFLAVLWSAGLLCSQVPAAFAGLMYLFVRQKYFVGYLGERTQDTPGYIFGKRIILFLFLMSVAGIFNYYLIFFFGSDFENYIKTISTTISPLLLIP

[3] = molecular target: T3, FLAP(T109C) (human, UniProt P20292 1-161, T109C); assay: cell-based or functional assay
T3 sequence (looked up): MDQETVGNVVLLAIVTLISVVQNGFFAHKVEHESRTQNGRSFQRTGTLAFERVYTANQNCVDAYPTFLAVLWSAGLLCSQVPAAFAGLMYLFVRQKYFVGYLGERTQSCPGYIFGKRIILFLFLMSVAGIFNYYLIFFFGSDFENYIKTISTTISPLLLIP

[4] = molecular target: T4, FLAP(S41D) (human, UniProt P20292 1-161, S41D); assay: cell-based or functional assay
T4 sequence (looked up): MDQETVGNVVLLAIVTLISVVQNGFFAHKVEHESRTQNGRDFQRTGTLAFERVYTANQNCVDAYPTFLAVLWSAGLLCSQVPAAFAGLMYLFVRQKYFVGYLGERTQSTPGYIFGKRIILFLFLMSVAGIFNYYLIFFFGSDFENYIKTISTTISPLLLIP

B1: 5-lipoxygenase (enzyme, human, UniProt P09917 1-674, looked up)
chain: MPSYTVTVATGSQWFAGTDDYIYLSLVGSAGCSEKHLLDKPFYNDFERGAVDSYDVTVDEELGEIQLVRIEKRKYWLNDDWYLKYITLKTPHGDYIEFPCYRWITGDVEVVLRDGRAKLARDDQIHILKQHRRKELETRQKQYRWMEWNPGFPLSIDAKCHKDLPRDIQFDSEKGVDFVLNYSKAMENLFINRFMHMFQSSWNDFADFEKIFVKISNTISERVMNHWQEDLMFGYQFLNGCNPVLIRRCTELPEKLPVTTEMVECSLERQLSLEQEVQQGNIFIVDFELLDGIDANKTDPCTLQFLAAPICLLYKNLANKIVPIAIQLNQIPGDENPIFLPSDAKYDWLLAKIWVRSSDFHVHQTITHLLRTHLVSEVFGIAMYRQLPAVHPIFKLLVAHVRFTIAINTKAREQLICECGLFDKANATGGGGHVQMVQRAMKDLTYASLCFPEAIKARGMESKEDIPYYFYRDDGLLVWEAIRTFTAEVVDIYYEGDQVVEEDPELQDFVNDVYVYGMRGRKSSGFPKSVKSREQLSEYLTVVIFTASAQHAAVNFGQYDWCSWIPNAPPTMRAPPPTAKGVVTIEQIVDTLPDRGRSCWHLGAVWALSQFQENELFLGMYPEEHFIEKPVKEAMARFRKNLEAIVSVIAERNKKKQLPYYYLSPDRIPNSVAI
B1 was tested, and the ratio of 5‐H(P)ETE to trans‐isomers of LTB4 formed in HEK293 cells co-expressing 5-LOX and the FLAP mutant (2.5 μM A23187 plus 2 μM AA, vehicle); wildtype about 1.2 [1] was 3.2, the “ratio of 5‐H(P)ETE to trans‐isomers of LTB4 formed in HEK293 cells co-expressing 5-LOX and the FLAP mutant (2.5 μM A23187 plus 2 μM AA, vehicle); wildtype about 1.2” value (shortened to “ratio of 5‐H(P)ETE”) [2] was 2 and the “ratio of 5‐H(P)ETE” value [3] was 2.6. The “ratio of 5‐H(P)ETE” value [4] was 2.3.

Source: publication PMC12338864, “Modifications in FLAP's second cytosolic loop influence 5‐LOX interaction, inhibitor binding, and leukotriene formation” (Febs Letters, 2025)
